In patent US20210388102A1 (IMMUNOGEN, published 2021):
Residue numbers refer to the chain shown, from its start. Names and notes keep the numbering of the source.

T1: human ADAM9 (huADAM9) on cells (human, UniProt Q13443 206-819)
T1 sequence: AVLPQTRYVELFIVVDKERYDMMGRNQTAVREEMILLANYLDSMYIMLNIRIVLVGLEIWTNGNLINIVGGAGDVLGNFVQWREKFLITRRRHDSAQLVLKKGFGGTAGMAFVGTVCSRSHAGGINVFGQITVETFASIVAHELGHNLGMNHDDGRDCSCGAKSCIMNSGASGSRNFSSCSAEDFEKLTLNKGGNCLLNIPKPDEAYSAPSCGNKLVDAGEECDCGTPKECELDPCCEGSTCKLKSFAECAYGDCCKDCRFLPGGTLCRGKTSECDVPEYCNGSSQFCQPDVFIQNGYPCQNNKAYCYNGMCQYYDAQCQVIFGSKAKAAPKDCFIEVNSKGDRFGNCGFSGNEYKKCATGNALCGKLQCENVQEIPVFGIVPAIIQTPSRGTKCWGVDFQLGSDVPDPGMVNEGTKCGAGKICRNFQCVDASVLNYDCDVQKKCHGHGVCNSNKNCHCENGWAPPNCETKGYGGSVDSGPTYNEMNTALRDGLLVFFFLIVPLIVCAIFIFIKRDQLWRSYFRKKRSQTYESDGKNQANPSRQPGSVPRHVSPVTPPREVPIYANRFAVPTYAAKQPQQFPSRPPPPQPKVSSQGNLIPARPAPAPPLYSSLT

T2: His-tagged soluble human ADAM9 (shADAM9-His) (human, UniProt Q13443 206-697)
T2 construct: Contains an extracellular portion of human ADAM9; also called huADAM9-His; His peptide-tagged soluble huADAM9
T2 sequence: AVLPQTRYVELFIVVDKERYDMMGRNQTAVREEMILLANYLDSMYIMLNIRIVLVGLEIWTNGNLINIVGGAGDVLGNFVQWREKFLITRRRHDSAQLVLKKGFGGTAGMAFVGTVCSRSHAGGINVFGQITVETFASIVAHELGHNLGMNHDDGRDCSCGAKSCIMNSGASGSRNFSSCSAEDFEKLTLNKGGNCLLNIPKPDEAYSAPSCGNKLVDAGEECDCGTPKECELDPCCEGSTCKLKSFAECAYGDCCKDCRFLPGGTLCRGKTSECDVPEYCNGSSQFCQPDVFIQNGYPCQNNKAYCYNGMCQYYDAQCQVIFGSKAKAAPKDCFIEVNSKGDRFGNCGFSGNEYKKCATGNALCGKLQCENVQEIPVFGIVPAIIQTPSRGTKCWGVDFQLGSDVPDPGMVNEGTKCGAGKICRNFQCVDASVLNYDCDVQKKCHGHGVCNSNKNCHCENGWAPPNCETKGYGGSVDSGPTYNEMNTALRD

T3: cynomolgus monkey ADAM9 (cynoADAM9) on cells (cynomolgus monkey, UniProt Q13443 206-819 (human entry))
T3 construct: also called Cho-K/cynoADAM9 clone 2; Cho-K/cynoADAM9 clone #16
T3 chain: T1 sequence with V69A, Q130H, G421D, V441I, S521R, G546V, A569P

B1: hMAB-A(2.2)-DGN549 (antibody, human IgG1, kappa, V domains shown)
VH: EVQLVESGGGLVKPGGSLRLSCAASGFTFSSYWMHWVRQAPGKGLEWVGEIIPIFGHTNYNEKFKSRFTISLDNSKNTLYLQMGSLRAEDTAVYYCARGGYYYYGSRDYFDYWGQGTTVTVSS
VL: DIVMTQSPDSLAVSLGERATISCKASQSVDYSGDSYMNWYQQKPGQPPKLLIYAASDLESGIPARFSGSGSGTDFTLTISSLEPEDFATYYCQQSHEDPFTFGQGTKLEIKR
modifications: lysine-linked DGN549, sites not given; DGN549-L (compound D2) linked to lysine residues of the antibody, sites not given; average 2.7 mol DGN549/mol antibody
B2: hMAB-A(2I.2)-S442C-DGN549 (antibody)
heavy: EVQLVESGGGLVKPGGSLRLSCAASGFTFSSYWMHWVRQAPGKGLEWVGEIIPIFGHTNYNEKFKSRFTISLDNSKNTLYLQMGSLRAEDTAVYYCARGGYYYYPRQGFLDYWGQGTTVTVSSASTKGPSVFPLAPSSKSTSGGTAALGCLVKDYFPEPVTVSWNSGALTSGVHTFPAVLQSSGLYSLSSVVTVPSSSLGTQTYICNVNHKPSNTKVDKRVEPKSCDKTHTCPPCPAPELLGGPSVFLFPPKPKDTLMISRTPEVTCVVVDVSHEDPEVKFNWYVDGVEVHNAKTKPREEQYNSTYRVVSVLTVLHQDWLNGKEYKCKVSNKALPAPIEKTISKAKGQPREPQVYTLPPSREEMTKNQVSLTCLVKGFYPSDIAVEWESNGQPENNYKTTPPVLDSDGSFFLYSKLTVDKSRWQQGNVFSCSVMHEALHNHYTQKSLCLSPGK
light: DIVMTQSPDSLAVSLGERATISCKASQSVDYSGDSYMNWYQQKPGQPPKLLIYAASDLESGIPARFSGSGSGTDFTLTISSLEPEDFATYYCQQSHEDPFTFGQGTKLEIKRTVAAPSVFIFPPSDEQLKSGTASVVCLLNNFYPREAKVQWKVDNALQSGNSQESVTEQDSKDSTYSLSSTLTLSKADYEKHKVYACEVTHQGLSSPVTKSFNRGEC
modifications: DGN549-C (compound D5) on the engineered Cys S442C (EU index; 6th to the last residue of SEQ ID NO 142 when X is lysine); average 1.9 mol DGN549/mol antibody
notes: also called huMAB-A(2I.2)-S442C-DGN549
B3: hMAB-A(2.2)-sSPDB-DM4 (antibody, human IgG1, kappa, V domains shown)
VH: B1 VH
VL: B1 VL
modifications: lysine-linked DM4, sites not given; DM4 linked through sulfo-SPDB to lysine residues of the antibody, sites not given; average 3.2 mol DM4/mol antibody
notes: also called huMAB-A(2.2)-sSPDB-DM4
B4: hMAB-A (2B.2) (antibody, V domains shown)
VH: B1 VH with G105I, S106G, R107K, D108G, Y109V, F110L
VL: DIVMTQSPDSLAVSLGERATISCKASQSVDYSGDSYMNWYQQKPGQPPKLLIYAASDLESGIPARFSGSGSGTDFTLTISSLEPEDFATYYCQQSHEDPFTFGQGTKLEIK
notes: also called MAB-A VH(2B); MAB-A VH(2B.2)
B5: hMAB-A (2D.2) (antibody, V domains shown)
VH: B1 VH with G105T, S106G, R107K, D108G, Y109V, F110L
VL: B4 VL
notes: also called MAB-A VH(2D); MAB-A VH(2D.2)
B6: chMAB-A-sSPDB-DM4 (antibody, V domains shown)
VH: QVQLQQPGAELVKPGASVKLSCKASGYTFTSYWMHWVKQRPGQGLEWIGEIIPINGHTNYNEKFKSKATLTLDKSSSTAYMQLSSLASEDSAVYYCARGGYYYYGSRDYFDYWGQGTTLTVSS
VL: DIVLTQSPASLAVSLGQRATISCKASQSVDYDGDSYMNWYQQIPGQPPKLLIYAASDLESGIPARFSGSGSGTDFTLNIHPVEEEDAATYYCQQSHEDPFTFGGGTKLEIK
modifications: lysine-linked DM4, sites not given; DM4 linked through sulfo-SPDB to lysine residues of the antibody, sites not given; average 3.4 mol DM4/mol antibody
B7: chMAB-A-DGN549 (antibody, V domains shown)
VH: B6 VH
VL: B6 VL
modifications: lysine-linked DGN549, sites not given; DGN549-L (compound D2) linked to lysine residues of the antibody, sites not given; average 2.7 mol DGN549/mol antibody
B8: hMAB-A(2I.2)-DGN549 (antibody, human IgG1, kappa)
heavy: not shown
light: B2 light
modifications: lysine-linked DGN549, sites not given; DGN549-L (compound D2) linked to lysine residues of the antibody, sites not given; average 2.8 mol DGN549/mol antibody
B9: hMAB-A(2C.2)-sSPDB-DM4 (antibody, human IgG1, kappa, V domains shown)
VH: B1 VH with G105P, S106R, R107F, D108G, Y109W, F110L
VL: B1 VL
modifications: lysine-linked DM4, sites not given; DM4 linked through sulfo-SPDB to lysine residues of the antibody, sites not given; average 3.2 mol DM4/mol antibody
B10: hMAB-A(2C.2)-DGN549 (antibody, human IgG1, kappa, V domains shown)
VH: B1 VH with G105P, S106R, R107F, D108G, Y109W, F110L
VL: B1 VL
modifications: lysine-linked DGN549, sites not given; DGN549-L (compound D2) linked to lysine residues of the antibody, sites not given; average 2.8 mol DGN549/mol antibody

biological target: T1, human ADAM9 (huADAM9) on cells; assay: cell-based or functional assay

Row | Fold-specificity (IC50 control ADC/IC50 anti-ADAM9 ADC), A498 | Fold-specificity (IC50 control ADC/IC50 anti-ADAM9 ADC), DLD-1 | Fold-specificity (IC50 control ADC/IC50 anti-ADAM9 ADC), DU145 | Fold-specificity (IC50 control ADC/IC50 anti-ADAM9 ADC), HPAF2 | Fold-specificity (IC50 control ADC/IC50 anti-ADAM9 ADC), HS578T | Fold-specificity (IC50 control ADC/IC50 anti-ADAM9 ADC), IGROV1 | Fold-specificity (IC50 control ADC/IC50 anti-ADAM9 ADC), KATO III | Fold-specificity (IC50 control ADC/IC50 anti-ADAM9 ADC), NCI-H1703 | Binder | In Vitro Cytotoxicity (IC50 nM), A498 | In Vitro Cytotoxicity (IC50 nM), DLD-1
1 | > 1000 fold | > 1000 fold | > 1000 fold | > 1000 fold | > 1000 fold | > 1000 fold | > 1000 fold | > 1000 fold | B1 | 0.001 nM | 0.01 nM
2 | > 1000 fold | > 1000 fold | > 1000 fold | > 1000 fold | 646 fold | > 1000 fold | > 1000 fold | > 1000 fold | B2 | 0.004 nM | 0.045 nM
3 | 27 fold | 9 fold | 25 fold | 9 fold | 16 fold | 3 fold | 5 fold | 152 fold | B3 | 0.119 nM | 2.73 nM

same assay, conditions: not given

Row | Binder | In Vitro Cytotoxicity (IC50 nM), DU145 | In Vitro Cytotoxicity (IC50 nM), HPAF2 | In Vitro Cytotoxicity (IC50 nM), HS578T | In Vitro Cytotoxicity (IC50 nM), IGROV1 | In Vitro Cytotoxicity (IC50 nM), KATO III | In Vitro Cytotoxicity (IC50 nM), NCI-H1703
4 | B1 | 0.002 nM | 0.043 nM | 0.009 nM | 0.001 nM | 0.031 nM | 0.002 nM
5 | B2 | 0.004 nM | 0.115 nM | 0.017 nM | 0.003 nM | 0.065 nM | 0.004 nM
6 | B3 | 0.57 nM | 0.622 nM | 0.119 nM | 4.08 nM | 1.15 nM | 0.024 nM

biological target: T2, His-tagged soluble human ADAM9 …; assay: SPR (BIACORE), antibody captured, huADAM9-His in flow
Protocol: The kinetics of binding were determined via BIACORE® analysis binding (normalized 1:1 Langmuir binding model).

Row | Kd | koff | kon | Binder
7 | 0.6 nM | 0.00039 s⁻¹ | 610000 M⁻¹ s⁻¹ | B4
8 | 0.8 nM | 0.00058 s⁻¹ | 690000 M⁻¹ s⁻¹ | B5

Biological target: T3, cynomolgus monkey ADAM9 (cynoADAM9) on …
Assay: FACS, EC50 on 300-19 cynoADAM9 cells over EC50 on 300-19 huADAM9 cells
Protocol: (§1) To evaluate the consequence of conjugation on antigen binding, the relative binding affinity of each anti-ADAM9 immunoconjugate and its respective unconjugated antibody to ADAM9 was determined by FACS analysis on 300-19 cells ectopically-expressing either human ADAM9 or cynomolgus ADAM9. Briefly, the ADAM9-expressing 300-19 cells were incubated with dilution series of anti-ADAM9 antibodies or immunoconjugates for 30 min @ 4° C. in FACS buffer (PBS, 0.1% BSA, 0.01% NaN₃), Samples were then washed and incubated with fluorescently-labeled secondary antibody for 30 minutes at 4° C. The normalized mean of fluorescence intensity at each concentration was plotted and the EC50 of binding was calculated using a nonlinear regression analysis (GraphPad Prims 4.0).

Row | cyno/human (ratio of EC50) | Binder
9 | 290 | B6
10 | 123 | B7
11 | 3 | B8
12 | 14 | B1
13 | 3 | B9
14 | 2 | B2
15 | 3 | B10
16 | 12 | B3

biological target: T1, human ADAM9 (huADAM9) on cells; assay: FACS, 300-19 cells expressing human ADAM9
Protocol: as §1

Row | EC50 | Binder
17 | 0.95 nM | B6
18 | 1.24 nM | B7
19 | 2.25 nM | B8
20 | 1.55 nM | B1
21 | 1.5 nM | B9
22 | 2.49 nM | B2
23 | 1.99 nM | B10
24 | 1.11 nM | B3

Biological target: T3, cynomolgus monkey ADAM9 (cynoADAM9) on …
Assay: FACS, 300-19 cells expressing cynomolgus ADAM9
Protocol: as §1

Row | EC50 | Binder
25 | 275 nM | B6
26 | 153 nM | B7
27 | 6.6 nM | B8
28 | 22.3 nM | B1
29 | 4.4 nM | B9
30 | 6.2 nM | B2
31 | 5.6 nM | B10
32 | 13.3 nM | B3
